The values that follow come from patent publication US20200317768A1 (published 2020).

T1: human FcγRIIb extracellular domain with C-terminal His-tag (human, UniProt P31994 43-217)
T1 construct: also called human FcgRIIb
T1 sequence: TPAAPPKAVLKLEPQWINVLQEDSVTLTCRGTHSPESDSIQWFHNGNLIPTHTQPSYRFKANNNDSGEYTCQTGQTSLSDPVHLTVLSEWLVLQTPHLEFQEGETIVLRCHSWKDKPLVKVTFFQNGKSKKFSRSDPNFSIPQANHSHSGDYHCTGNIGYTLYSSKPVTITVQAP

T2: cynomolgus monkey FcγRIIa1 extracellular domain with C-terminal His-tag (cynomolgus monkey)
T2 construct: also called cyno FcgRIIa1; cynoFcγRIIa1
T2 chain: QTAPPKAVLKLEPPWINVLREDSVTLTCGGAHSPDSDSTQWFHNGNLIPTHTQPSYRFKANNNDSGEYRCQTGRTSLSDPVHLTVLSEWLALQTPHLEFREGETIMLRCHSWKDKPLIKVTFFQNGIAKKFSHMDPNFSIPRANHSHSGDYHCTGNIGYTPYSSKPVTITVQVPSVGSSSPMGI

T3: cynomolgus monkey FcγRIIIaS extracellular domain with C-terminal His-tag (cynomolgus monkey, UniProt Q8SPW2 21-206 at identity 1.00))
T3 construct: also called cyno FcgRIIIaS; cynoFcγRIIIaS
T3 chain: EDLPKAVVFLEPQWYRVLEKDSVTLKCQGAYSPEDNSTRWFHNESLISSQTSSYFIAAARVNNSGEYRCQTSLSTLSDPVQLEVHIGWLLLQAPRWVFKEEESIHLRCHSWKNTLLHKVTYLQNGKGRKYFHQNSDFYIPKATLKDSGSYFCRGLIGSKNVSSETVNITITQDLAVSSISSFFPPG

T4: human FcγRIIaH extracellular domain with C-terminal His-tag (human, UniProt P12318 34-217)
T4 construct: also called human FcgRIIaH; FcγRIIa (type H)
T4 sequence: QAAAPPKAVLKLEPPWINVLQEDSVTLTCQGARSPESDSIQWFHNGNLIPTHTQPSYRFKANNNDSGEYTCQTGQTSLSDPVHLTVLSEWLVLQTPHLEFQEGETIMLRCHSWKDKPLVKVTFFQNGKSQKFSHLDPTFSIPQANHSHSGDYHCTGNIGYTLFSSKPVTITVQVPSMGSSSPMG

T5: cynomolgus monkey FcγRIIa2 extracellular domain with C-terminal His-tag (cynomolgus monkey)
T5 construct: also called cyno FcgRIIa2; cynoFcγRIIa2
T5 chain: T2 chain with P95T, T121A, I127K, A128S, K130N, D135N, R142Q

T6: cynomolgus monkey FcγRIIa3 extracellular domain with C-terminal His-tag (cynomolgus monkey)
T6 construct: also called cyno FcgRIIa3; cynoFcγRIIa3
T6 chain: T2 chain with P95T, T121A, A128S, H133P, D135N

T7: human FcγRIIaR extracellular domain with C-terminal His-tag (human, UniProt P12318 34-217)
T7 construct: also called human FcgRIIaR; FcγRIIa (type R)
T7 chain: T4 sequence with H134R

B1: M103205H795-MY530/M103202L889-SK1 (antibody, human IgG1, kappa)
heavy: QVTLKESGPVLVKPTETLTLTCTVSGIDLSHDDISWVRQAPGKGLEWVGIISYAGSTYYASWAKGRLTISKDTSKNQVVLTMTNMDPVDTATYYCARGVPAYSHGGDLWGQGTLVTVSSASTKGPSVFPLAPSSKSTSGGTAALGCLVKDYFPEPVTVSWNSGALTSGVHTFPAVLQSSGLYSLSSVVTVPSSSLGTQTYICNVNHKPSNTKVDKKVEPKSCDKTHTCPPCPAPELLTGPSVFLFPPKPKDTLMISRTPEVTCVVVDVSDEDPEVKFNWYVDGVEVHNAKTKPREEQYNSTYRVVSVLTVLHQDWLNGKEYKCKVSNTALPKPIEKTISKAKGQPREPQVYTLPPSREEMTKNQVSLTCLVKGFYPSDIAVEWESNGQPENNYKTTPPVLDSDGSFFLYSKLTVDKSRWQQGNVFSCSVMHEALHNHYTQKSLSLSP
light: DIVMTQSPATLSLSPGERATLSCTSSQSVYHANWLSWFQQKPGQPPKLLIYWASTLAYGVPSRFSGSGSGTDFTLTISSLQPEDAATYYCAGGYGGGRYAFGQGTKVEIKRTVAAPSVFIFPPSDEQLKSGTASVVCLLNNFYPREAKVQWKVDNALQSGNSQESVTEQDSKDSTYSLSSTLTLSKADYEKHKVYACEVTHQGLSSPVTKSFNRGEC
notes: Substitutions introduced into M103205H795-SG1, expressed with M103202L889-SK1 as light chain; EU numbering
B2: M103205H795-MY532/M103202L889-SK1 (antibody, human IgG1, kappa)
heavy: B1 heavy with L236W, S241V, T328K
light: B1 light
notes: as for B1
B3: M103205H795-MY531/M103202L889-SK1 (antibody, human IgG1, kappa)
heavy: B1 heavy with L236W
light: B1 light
notes: as for B1

Where a chain is given by its changes, count along the chain named.

The first experiment deals with T1, human FcγRIIb extracellular domain with …. Description: SPR (BIACORE), antibody captured, FcgR analyte.
With B1, the Kd (usually the concentration at which binding is half-saturated) is 1600 nM.
Still for that read-out and setting: the value for B2 was 830 nM; that for B3 was 1500 nM.

In a further experiment the target is T2, cynomolgus monkey FcγRIIa1 …. Description: SPR (BIACORE), antibody captured, FcgR analyte. For orientation: In SPR one partner is held on a chip, and binding of the other changes the refractive index at the surface.
In turn, B1 came in with an equilibrium dissociation constant (Kd) of 13 nM.
Still for that read-out and setting: the figure for B2 is 770 nM; for B3 it is 1100 nM.

The target of a further experiment is T3, cynomolgus monkey FcγRIIIaS …. Nature of the experiment: SPR (BIACORE), antibody captured, FcgR analyte.
With B1, the dissociation constant Kd was found to be 850 nM.
The same measure, in the same setting: the value for B2 was 860 nM.
Still for that read-out and setting: the value for B3 was 1000 nM.

The next experiment addresses T4, human FcγRIIaH extracellular domain …. Description: SPR (BIACORE), antibody captured, FcgR analyte.
For B1, the equilibrium dissociation constant (Kd) stood at 170 nM.
Same read-out and setting: the value for B2 was 210 nM; that for B3 was 290 nM.

A further experiment deals with T5, cynomolgus monkey FcγRIIa2 …. Nature of the experiment: SPR (BIACORE), antibody captured, FcgR analyte.
In the case of B1, binding was put at a Kd of 1100 nM.
On the same count and under the same terms, the figure for B2 is 600 nM.
On the same count and under the same terms, the figure for B3 is 920 nM.

The next experiment addresses T6, cynomolgus monkey FcγRIIa3 …. Nature of the experiment: SPR (BIACORE), antibody captured, FcgR analyte.
For the molecule B1, the Kd was found to be 2500 nM.
The same measure, in the same setting: the figure for B2 is 740 nM; for B3 it is 2200 nM.

Another experiment deals with T8, human FcγRIIIaV extracellular domain with C-terminal His-tag (human, UniProt P08637 17-208).
T8 construct: also called human FcgRIIIaV
T8 sequence (P08637 17-208 F176V): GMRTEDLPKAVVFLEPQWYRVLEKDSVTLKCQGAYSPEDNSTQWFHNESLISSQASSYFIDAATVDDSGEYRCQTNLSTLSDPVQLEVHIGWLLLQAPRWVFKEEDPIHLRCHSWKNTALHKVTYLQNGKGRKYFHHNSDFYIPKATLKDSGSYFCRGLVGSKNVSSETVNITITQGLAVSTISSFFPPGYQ
Nature of the experiment: SPR (BIACORE), antibody captured, FcgR analyte.
B1 had a Kd of 3600 nM.
Molecule B2 gave an equilibrium dissociation constant (Kd) of 1700 nM.
As to B3, the dissociation constant Kd was determined as 2900 nM.

The target of a further experiment is T7, human FcγRIIaR extracellular domain …. Nature of the experiment: SPR (BIACORE), antibody captured, FcgR analyte.
In turn, B1 displayed an equilibrium dissociation constant (Kd) of 270 nM.
Still for that read-out and setting: the value for B2 was 190 nM; that for B3 was 410 nM.

The next experiment has the same target. Description: SPR (BIACORE); KD of SG1 / KD of variant.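 Further: relative to parent M103205H795-SG1 carrying the SG1 human heavy chain constant region.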
On to B1, for which the “KD fold (SG1 = 1)” value is 4.1 fold.
As for B2, the “KD fold (SG1 = 1)” value came out at 3.8 fold.
Still for that read-out and setting: the value for B3 was 2.7 fold.
